This note sets out measurements from patent US20240409621A1 (XIAMEN UNIVERSITY, published 2024).

Assay in all cases: cell-based or functional assay
The target of assay [1] is T1, F protein of RSV A2 (on the virus in the neutralization assay) (respiratory syncytial virus, A2 strain, UniProt P03420 26-574).
The target in assay [2] is F protein of RSV type B strain 18537 (on the virus in the neutralization assay) (respiratory syncytial virus type B, …, UniProt P13843 26-574).
Assay [3] concerns the target T1, F protein of RSV A2 (on the virus in …). This is another data set of the same source.

B1: monoclonal antibody 5B11 (antibody, V domains shown)
VH: QIQLVQSGPELKKPGETVKISCKASGYTFTDYSMHWLKQAPGKGLKWMGWITTETGEPTYADDFKGRFAFSLETSASTAYLQINNLKNEDTGIYFCARYYYGPFYWGQGTLVTVST
VL: DIQMTQSPASLSASVGETVTITCRSSGNIHNFLTWYQQKQGKSPQFLVYNAKTLADGVSSRFSGSGSGTQFSLKINSLQPEDFGIYYCQHFWTTPYTFGGGTKLEIK
In the case of B1, the “IC50 of each RSV neutralizing antibody, RSV A2” value (shortened to “IC50”) in assay [1] is 0.0074 µg/mL. The “neutralizing ability against 18537, relative to 1129” value in assay [2] was approximately 10 times. Moreover, in assay [3], the “neutralizing ability against RSV A2, relative to 1129” value was determined as 50 times.

B2: monoclonal antibody 6B2 (antibody, V domains shown)
VH: EVQLQQSRPELVKPGASVKISCKASGYSFTAYFMNWVKQSHGKSLEWIGRINPYIGDTFYNQKFKGKATLTVDKSSNTAHMELLSLTSEDSAVYYCGRSEYGNYYFDYWGQGTTLTVSQ
VL: ENVLTQSPAIMSASLGEKVTMSCRASSSVNYMYWYQQKSDASPKLWIYYTSNLAPGVPARFSGSGSGNSYSLTISSMEGEDAATYYCQQFTSSPLTFGAGTKLELK
As for B2, the “IC50” value in assay [1] was 0.0949 µg/mL.

B3: monoclonal antibody 7G5 (antibody, V domains shown)
VH: QVQLKESGPGLVAPSQSLSITCTVSGFSLSSYGVHWIRQPPGKGLEWLGVIWAGGSTNYNSALMSRLSISEDNSKSQVFLKMNSLQTDDTAVYYCARKGLVWPAMDYWGQGTSVTVSQ
VL: DIQMTQTTSSLSASLGDRVTISCRASQDISHYLNWYQQKPDGTVKLLIYYTSRLHSGVPSRFSGSGSGTDYSLTIYNLEQEDIATYFCQQGNTLPWTFGGGTKLEIK
Consider B3, for which the “IC50” value in assay [1] was 0.0316 µg/mL.
